The target of the assay is β amyloid (Aβ) 1-40 peptide. Nature of the assay: cell-based or functional assay.

This passage reports inhibition of Aβ aggregation, Congo red assay, inhibition of Aβ aggregation, thioflavin-T fluorescence assay and protection of SHSY-5Y neuronal cells from Aβ-induced death, MTT assay (% more surviving cells than control) results from patent publication US20050009749A1.

Chain of β amyloid (Aβ) 1-40 peptide (peptide, as listed by the source): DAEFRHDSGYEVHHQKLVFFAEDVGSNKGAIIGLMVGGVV

The substance “AABA protein (β amyloid aggregation blocking activity protein) from Streptomyces sp. KK565” yielded an inhibition of Aβ aggregation, Congo red assay of 93.2 % inhibition and an inhibition of Aβ aggregation, thioflavin-T fluorescence assay of 97 % inhibition.
“AABA protein (β amyloid aggregation blocking activity protein) from Streptomyces sp. KK565 (enzyme)” registered a protection of SHSY-5Y neuronal cells from Aβ-induced death, MTT assay (% more surviving cells than control) of 20.
